The text below walks through data of US8133680.

For test [1], the target named is biotinylated bovine serum albumin (bovine) (UniProt P02769). Kind of test: ellipsometry after affinity microcontact printing; second use of the biotinylated BSA stamp; control.
The target is the same in test [2]. Kind of test: ellipsometry after affinity microcontact printing from biotinylated BSA stamp (1 mg/ml, 5 h); control.
Test [3] shares this target. As to the kind of experiment: ellipsometry after affinity microcontact printing; third use of the biotinylated BSA stamp; control.

Sequence of UniProt P02769 (P02769 25-607 limits assumed): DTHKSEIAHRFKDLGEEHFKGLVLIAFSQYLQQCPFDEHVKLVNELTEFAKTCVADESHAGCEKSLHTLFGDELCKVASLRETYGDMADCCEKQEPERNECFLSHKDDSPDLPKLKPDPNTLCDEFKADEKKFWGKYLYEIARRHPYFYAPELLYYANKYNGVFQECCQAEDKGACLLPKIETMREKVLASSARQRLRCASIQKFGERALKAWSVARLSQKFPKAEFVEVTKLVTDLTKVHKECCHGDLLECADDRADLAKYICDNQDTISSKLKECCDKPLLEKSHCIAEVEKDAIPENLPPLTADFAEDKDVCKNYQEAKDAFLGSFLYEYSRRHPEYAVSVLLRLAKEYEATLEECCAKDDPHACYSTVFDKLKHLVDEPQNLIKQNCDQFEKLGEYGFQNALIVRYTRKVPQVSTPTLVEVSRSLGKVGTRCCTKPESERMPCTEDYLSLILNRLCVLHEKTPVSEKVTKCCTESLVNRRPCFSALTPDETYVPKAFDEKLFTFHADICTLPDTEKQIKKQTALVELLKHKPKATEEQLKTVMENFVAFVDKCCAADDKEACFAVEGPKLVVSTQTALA

For anti-goat IgG (antibody), the change in ellipsometric thickness in test [1] worked out at 1.5 nm; in test [2], 2.3 nm; in test [3], 1.2 nm.
